Consider one molecule from US20230058489A1, “COMBINATION COMPRISING A TIM-3 INHIBITOR AND A HYPOMETHYLATING AGENT FOR USE IN TREATING MYELODYSPLASTIC SYNDROME OR CHRONIC MYELOMONOCYTIC LEUKEMIA” (Novartis AG, priority 2020, published 2023).

For the assay, the target named is T1, interaction between TIM-3 and Galectin-9 (Homo sapiens, UniProt Q8TDQ0).
T1 construct: purchased R&D Systems
The assay is described as follows: MesoScale competition assay, Gal9-SULFOTag binding to coated TIM-3 fusion protein. The conditions noted are these: serial dilutions, Galectin-9 SULFOTag 100 nM, FIG. 1. On the procedure:
TIM-3 fusion protein (R&D Systems) was coated on a standard MesoScale 96 well plate (Meso Scale Discovery) at 2 μg/ml in PBS (Phosphate Buffered Saline) and incubated for six hours at room temperature. The plate was washed three times with PBST (PBS buffer containing 0.05% Tween-20) and blocked with PBS containing 5% Probumin (Millipore) overnight at 4° C. […] The plate was then washed three times with PBST, and Galectin-9 labeled with MSD SULFOTag (Meso Scale Discovery) as per manufacturer's instructions, diluted in Assay Diluent to 100 nM, was added to the plate for one hour at room temperature on an orbital shaker. The plate was again washed three times with PBST, and Read Buffer T (1×) was added to the plate. The plate was read on MA600 Imager, and competition was assessed as a measure of the ability of the antibody to block Gal9-SULFOTag signal to TIM-3 receptor.

B1: Galectin-9 protein: control recombinant human Galectin-9 protein, unlabeled (protein)
chain: AFSGSQAPYLSPAVPFSGTIQGGLQDGLQITVNGTVLSSSGTRFAVNFQTGFSGNDIAFHFNPRFEDGGYVVCNTRQNGSWGPEERKTHMPFQKGMPFDLCFLVQSSDFKVMVNGILFVQYFHRVPFHRVDTISVNGSVQLSYISFQPPGVWPANPAPITQTVIHTVQSAPGQMFSTPAIPPMMYPHPAYPMPFITTILGGLYPSKSILLSGTVLPSAQRFHINLCSGNHIAFHLNPRFDENAVVRNTQIDNSWGSEERSLPRKMPFVRGQSFSVWILCEAHCLKVAVDGQHLFEYYHRLRNLPTINRLEVGGDIQLTHVQT
Turning to B1, the “ability to block Gal9-SULFOTag signal to TIM-3 receptor (competition)” value is “did not”.
